# T1: recombinant human Tie1-Fc (Homo sapiens, UniProt P35590)
# T1 construct: selected against the Tie1 extracellular domain fused to human Fc or to a histidine purification tag
# T1 sequence (P35590 22-759 limits assumed): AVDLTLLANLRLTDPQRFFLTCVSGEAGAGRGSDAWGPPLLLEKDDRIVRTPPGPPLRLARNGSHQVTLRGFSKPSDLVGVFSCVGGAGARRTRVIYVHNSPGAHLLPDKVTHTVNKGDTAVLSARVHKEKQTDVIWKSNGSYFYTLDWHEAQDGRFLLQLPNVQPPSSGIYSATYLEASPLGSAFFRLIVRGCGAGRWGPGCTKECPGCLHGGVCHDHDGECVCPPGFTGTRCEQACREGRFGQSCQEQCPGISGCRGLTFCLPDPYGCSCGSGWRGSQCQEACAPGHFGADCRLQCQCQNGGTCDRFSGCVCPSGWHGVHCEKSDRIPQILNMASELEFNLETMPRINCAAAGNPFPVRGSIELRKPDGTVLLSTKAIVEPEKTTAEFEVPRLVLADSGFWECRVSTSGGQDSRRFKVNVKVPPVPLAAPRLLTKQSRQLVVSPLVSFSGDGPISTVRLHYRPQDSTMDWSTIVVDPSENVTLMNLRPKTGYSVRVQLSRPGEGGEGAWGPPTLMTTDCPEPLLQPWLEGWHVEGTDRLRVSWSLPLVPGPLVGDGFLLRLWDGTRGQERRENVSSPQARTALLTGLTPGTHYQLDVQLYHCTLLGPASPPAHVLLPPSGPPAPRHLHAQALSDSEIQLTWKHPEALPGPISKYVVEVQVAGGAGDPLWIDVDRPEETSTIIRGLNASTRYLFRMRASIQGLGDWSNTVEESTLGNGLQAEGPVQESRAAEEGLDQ
# Biological target: T1, recombinant human Tie1-Fc
# Experiment: ELISA on recombinant human Tie-1-Fc
# Type: binding
# Details: soluble Fab 5 or 1 μg per 100 μl; 500 or 50 ng antigen per well
# Method: To evaluate if the conversion of any of the somatic mutations in the framework of E3 back to germline residues had any effect on binding activity the soluble Fabs were produced. The soluble expression vector containing the parental E3 Fab and the germlined E3 Fab construct were grown overnight at 30° C. in 2×TY broth containing 100 μg/ml ampicillin and 2% glucose and use 4 ml of this overnight culture to inoculate 400 ml of 2×TY broth containing 100 μg/ml ampicillin and 0.1% glucose. Cells were grow at 37° C. until an OD600 of 0.8-1.0, 1 mM IPTG was added and the culture was maintained at 30° C. for 4 hours. The cultures were spun down at 4,000 rpm for 15 min at 4° C. […] Dialyze against PBS using dialysis cassettes (SLIDE-A-LYSER™ Dialysis Cassettes, MWCO 10,000, Pierce, cat. no. 66380) and determine the protein concentration from the absorbance at 280 nm assuming that a 1 mg/ml solution has an absorbance of 0.86. The quality of the preparations can be analyzed by reducing and non-reducing SDS-PAGE.
# Wells of an IMMULON™ 2 HB plate coated overnight with 500 ng or 50 ng of purified recombinant human Tie-1-Fc target antigen per 100 microliters 0.1 M sodium bicarbonate buffer, pH 8.5. […] After washing the wells seven times 100 microliters TMB-H2O2 solution was added to each well and the plate read at 630 nm in an ELISA. […]
molecule,measurement,value
"E3: human anti-Tie1 antibody from Fab phage library; HC SEQ ID NO:114, LC SEQ ID NO:116 (antibody, V domains shown, Synthetically generated peptide) VH: EVQLLESGGGLVQPGGSLRLSCAASGFTFSMYGMVWVRQAPGKGLEWVSVISPSGGNTGYADSVKGRFTISRDNSKNTLYLQVNSLRAEDTAVYYCARAPRGYSYGYYYWGQGTLVTVSSASTKGPSVFPLAPSSKSTSGG VL: DIQMTQSPLSLSASVGDRVTITCRASQGIGHYLAWYQQKPGKVPKLLIYTASTLQSGVPSRFSGSGSGTDFTLTINSLQPEDVATYYCQQFNSYPHTFGQGTRLDIK",binding to recombinant human Tie-1-Fc in ELISA,bound

# Source: US7871610B2, “Antibodies to Tie1 ectodomain” (Dyax Corp., priority 2003, dated 2011)
